Experimental findings from patent US20240390508A1 (Takeda / Millennium, published 2024) are described below.

The labels stand for the following.
B1: peptide-HDO conjugate of Example 14 (first nucleic acid strand A2, second nucleic acid strand C4) (peptide)
peptide: AVFVWNYYIIRRYYC
modifications: MeF at 3, MeY at 14 (N-methyl); thioether ring from N-terminal chloroacetyl-Ala to Cys 15; C-terminal Gly-KN3-NH2, azide joined to BCN on the oligonucleotide
notes: also called A2/C4
B2: peptide-HDO conjugate of Example 11 (first nucleic acid strand A2, second nucleic acid strand C11) (peptide)
peptide: AVFVWNYYIIRRYYC
modifications: MeF at 3, MeY at 14 (N-methyl); thioether ring from N-terminal chloroacetyl-Ala to Cys 15; C-terminal Gly-KN3-NH2, azide joined to BCN on the oligonucleotide
notes: also called A2/C11
B3: peptide-HDO conjugate of Example 19 (first nucleic acid strand A1, second nucleic acid strand C19) (peptide)
peptide: AVFVWNYYIIRRYYC
modifications: MeF at 3, MeY at 14 (N-methyl); thioether ring from N-terminal chloroacetyl-Ala to Cys 15; C-terminal Gly-KN3-NH2, azide joined to BCN on the oligonucleotide
notes: also called A1/C19
B4: peptide-HDO conjugate of Example 39 (first nucleic acid strand A2, second nucleic acid strand C31) (peptide)
peptide: AVFVWNYYIIRRYYC
modifications: MeF at 3, MeY at 14 (N-methyl); thioether ring from N-terminal chloroacetyl-Ala to Cys 15; C-terminal Gly-KN3-NH2, azide joined to BCN on the oligonucleotide
notes: also called A2/C31
B5: Y11-PMO conjugate of Example 58 (peptide)
peptide: AVFVWNYYIIRRYYC
chain: GGGEEESSC
modifications: not fully specified; N-terminal BCN; C-terminal amide; tBuS removed from Cys, Cys thiol joined to 3-maleimide propionyl A1; MeF at 3, MeY at 14 (N-methyl); thioether ring from N-terminal chloroacetyl-Ala to Cys 15; C-terminal Gly-KN3-NH2, azide joined to BCN of the linker peptide
B6: peptide-HDO conjugate of Example 2 (first nucleic acid strand A1, second nucleic acid strand C2) (peptide)
peptide: AVFVWNYYIIRRYYC
modifications: MeF at 3, MeY at 14 (N-methyl); thioether ring from N-terminal chloroacetyl-Ala to Cys 15; C-terminal Gly-KN3-NH2, azide joined to BCN on the oligonucleotide
notes: also called A1/C2
B7: Y10-PMO conjugate of Example 57 (peptide)
peptide: AVFVWNYYIIRRYYC
chain: RRRA
modifications: not fully specified; N-terminal BCN-AEEA; C-terminal beta-Ala coupled to the 3' end of PMO A1; MeF at 3, MeY at 14 (N-methyl); thioether ring from N-terminal chloroacetyl-Ala to Cys 15; C-terminal Gly-KN3-NH2, azide joined to BCN of the linker peptide
B8: Y13-PMO conjugate of Example 60 (peptide)
peptide: AVFVWNYYIIRRYYC
chain: RRRG
modifications: not fully specified; N-terminal 4-pentynoyl-AEEA; C-terminal Gly coupled to PMO A4; MeF at 3, MeY at 14 (N-methyl); thioether ring from N-terminal chloroacetyl-Ala to Cys 15; C-terminal Gly-KN3-NH2, azide joined by copper-catalysed click to the 4-pentynoyl group of the linker …
B9: peptide-HDO conjugate of Example 22 (first nucleic acid strand A2, second nucleic acid strand C17) (peptide)
peptide: AVFVWNYYIIRRYYC
modifications: MeF at 3, MeY at 14 (N-methyl); thioether ring from N-terminal chloroacetyl-Ala to Cys 15; C-terminal Gly-KN3-NH2, azide joined to BCN on the oligonucleotide
notes: also called A2/C17
B10: peptide-HDO conjugate of Example 21 (first nucleic acid strand A1, second nucleic acid strand C21) (peptide)
peptide: AVFVWNYYIIRRYYC
modifications: MeF at 3, MeY at 14 (N-methyl); thioether ring from N-terminal chloroacetyl-Ala to Cys 15; C-terminal Gly-KN3-NH2, azide joined to BCN on the oligonucleotide
notes: also called A1/C21
B11: peptide-HDO conjugate of Example 38 (first nucleic acid strand A2, second nucleic acid strand C30) (peptide)
peptide: AVFVWNYYIIRRYYC
modifications: MeF at 3, MeY at 14 (N-methyl); thioether ring from N-terminal chloroacetyl-Ala to Cys 15; C-terminal Gly-KN3-NH2, azide joined to BCN on the oligonucleotide
notes: also called A2/C30
B12: peptide-HDO conjugate of Example 23 (first nucleic acid strand A2, second nucleic acid strand C18) (peptide)
peptide: AVFVWNYYIIRRYYC
modifications: MeF at 3, MeY at 14 (N-methyl); thioether ring from N-terminal chloroacetyl-Ala to Cys 15; C-terminal Gly-KN3-NH2, azide joined to BCN on the oligonucleotide
notes: also called A2/C18
B13: peptide-HDO conjugate of Example 37 (first nucleic acid strand A2, second nucleic acid strand C29) (peptide)
peptide: AVFVWNYYIIRRYYC
modifications: MeF at 3, MeY at 14 (N-methyl); thioether ring from N-terminal chloroacetyl-Ala to Cys 15; C-terminal Gly-KN3-NH2, azide joined to BCN on the oligonucleotide
notes: also called A2/C29
B14: peptide-HDO conjugate of Example 6 (first nucleic acid strand A1, second nucleic acid strand C6) (peptide)
peptide: AVFVWNYYIIRRYYC
modifications: MeF at 3, MeY at 14 (N-methyl); thioether ring from N-terminal chloroacetyl-Ala to Cys 15; C-terminal Gly-KN3-NH2, azide joined to BCN on the oligonucleotide
notes: also called A1/C6
B15: peptide-HDO conjugate of Example 32 (first nucleic acid strand A1, second nucleic acid strand C32) (peptide)
peptide: AVFVWNYYIIRRYYC
modifications: MeF at 3, MeY at 14 (N-methyl); thioether ring from N-terminal chloroacetyl-Ala to Cys 15; C-terminal Gly-KN3-NH2, azide joined to BCN on the oligonucleotide
notes: also called A1/C32
B16: peptide-HDO conjugate of Example 52 (first nucleic acid strand A2, second nucleic acid strand C49) (peptide)
peptide: AVFVWNYYIIRRYYC
modifications: MeF at 3, MeY at 14 (N-methyl); thioether ring from N-terminal chloroacetyl-Ala to Cys 15; C-terminal Gly-PEG4c-KN3-NH2, azide joined to BCN on the oligonucleotide
notes: also called A2/C49
B17: peptide-HDO conjugate of Example 56 (first nucleic acid strand A4, second nucleic acid strand C56) (peptide)
peptide: AVFVWNYYIIRRYYC
modifications: not fully specified; MeF at 3, MeY at 14 (N-methyl); thioether ring from N-terminal chloroacetyl-Ala to Cys 15; C-terminal Gly-KN3-NH2, azide joined to BCN on the oligonucleotide
notes: also called A4/C56
B18: peptide-HDO conjugate of Example 50 (first nucleic acid strand A1, second nucleic acid strand C50) (peptide)
peptide: AVFVWNYYIIRRYYC
modifications: MeF at 3, MeY at 14 (N-methyl); thioether ring from N-terminal chloroacetyl-Ala to Cys 15; C-terminal Gly-PEG12c-KN3-NH2, azide joined to BCN on the oligonucleotide
notes: also called A1/C50
B19: peptide-HDO conjugate of Example 35 (first nucleic acid strand A2, second nucleic acid strand C27) (peptide)
peptide: AVFVWNYYIIRRYYC
modifications: MeF at 3, MeY at 14 (N-methyl); thioether ring from N-terminal chloroacetyl-Ala to Cys 15; C-terminal Gly-KN3-NH2, azide joined to BCN on the oligonucleotide
notes: also called A2/C27
B20: peptide-HDO conjugate of Example 34 (first nucleic acid strand A2, second nucleic acid strand C26) (peptide)
peptide: AVFVWNYYIIRRYYC
modifications: MeF at 3, MeY at 14 (N-methyl); thioether ring from N-terminal chloroacetyl-Ala to Cys 15; C-terminal Gly-KN3-NH2, azide joined to BCN on the oligonucleotide
notes: also called A2/C26
B21: peptide-HDO conjugate of Example 18 (first nucleic acid strand A1, second nucleic acid strand C18) (peptide)
peptide: AVFVWNYYIIRRYYC
modifications: MeF at 3, MeY at 14 (N-methyl); thioether ring from N-terminal chloroacetyl-Ala to Cys 15; C-terminal Gly-KN3-NH2, azide joined to BCN on the oligonucleotide
notes: also called A1/C18
B22: peptide-HDO conjugate of Example 30 (first nucleic acid strand A1, second nucleic acid strand C30) (peptide)
peptide: AVFVWNYYIIRRYYC
modifications: MeF at 3, MeY at 14 (N-methyl); thioether ring from N-terminal chloroacetyl-Ala to Cys 15; C-terminal Gly-KN3-NH2, azide joined to BCN on the oligonucleotide
notes: also called A1/C30
B23: peptide-HDO conjugate of Example 46 (first nucleic acid strand A2, second nucleic acid strand C44) (peptide)
peptide: AVFVWNYYIIRRYYC
modifications: MeF at 3, MeY at 14 (N-methyl); thioether ring from N-terminal chloroacetyl-Ala to Cys 15; C-terminal Gly-KN3-NH2, azide joined to BCN on the oligonucleotide
notes: also called A2/C44
B24: peptide-HDO conjugate of Example 49 (first nucleic acid strand A1, second nucleic acid strand C49) (peptide)
peptide: AVFVWNYYIIRRYYC
modifications: MeF at 3, MeY at 14 (N-methyl); thioether ring from N-terminal chloroacetyl-Ala to Cys 15; C-terminal Gly-PEG4c-KN3-NH2, azide joined to BCN on the oligonucleotide
notes: also called A1/C49
B25: peptide-HDO conjugate of Example 40 (first nucleic acid strand A2, second nucleic acid strand C32) (peptide)
peptide: AVFVWNYYIIRRYYC
modifications: MeF at 3, MeY at 14 (N-methyl); thioether ring from N-terminal chloroacetyl-Ala to Cys 15; C-terminal Gly-KN3-NH2, azide joined to BCN on the oligonucleotide
notes: also called A2/C32
B26: peptide-HDO conjugate of Example 7 (first nucleic acid strand A1, second nucleic acid strand C7) (peptide)
peptide: AVFVWNYYIIRRYYC
modifications: MeF at 3, MeY at 14 (N-methyl); thioether ring from N-terminal chloroacetyl-Ala to Cys 15; C-terminal Gly-KN3-NH2, azide joined to BCN on the oligonucleotide
notes: also called A1/C7
B27: peptide-HDO conjugate of Example 47 (first nucleic acid strand A1, second nucleic acid strand C47) (peptide)
peptide: AVFVWNYYIIRRYYC
modifications: MeF at 3, MeY at 14 (N-methyl); thioether ring from N-terminal chloroacetyl-Ala to Cys 15; C-terminal Gly-KN3-NH2, azide joined to BCN on the oligonucleotide
notes: also called A1/C47

T1 sequence (P02786 89-760 limits assumed): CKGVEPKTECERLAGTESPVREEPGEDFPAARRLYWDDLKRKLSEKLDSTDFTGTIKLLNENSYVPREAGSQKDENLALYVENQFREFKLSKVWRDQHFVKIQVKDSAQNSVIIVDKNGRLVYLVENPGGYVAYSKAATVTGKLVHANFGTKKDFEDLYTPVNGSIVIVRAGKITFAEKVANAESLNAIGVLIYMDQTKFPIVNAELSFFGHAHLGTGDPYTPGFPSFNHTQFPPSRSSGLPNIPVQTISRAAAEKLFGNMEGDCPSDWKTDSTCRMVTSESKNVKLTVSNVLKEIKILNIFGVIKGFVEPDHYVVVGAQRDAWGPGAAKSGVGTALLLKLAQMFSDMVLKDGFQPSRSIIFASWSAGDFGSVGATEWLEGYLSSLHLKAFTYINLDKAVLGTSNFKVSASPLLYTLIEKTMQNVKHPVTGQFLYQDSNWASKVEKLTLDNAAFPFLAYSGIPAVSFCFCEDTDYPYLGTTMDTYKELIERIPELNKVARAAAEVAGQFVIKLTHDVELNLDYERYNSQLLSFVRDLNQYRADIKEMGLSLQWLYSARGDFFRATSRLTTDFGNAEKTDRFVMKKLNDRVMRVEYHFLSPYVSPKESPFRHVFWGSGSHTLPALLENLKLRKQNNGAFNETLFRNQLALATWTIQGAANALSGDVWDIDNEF

The assay addresses T1, human transferrin receptor (hTfR) (human, UniProt P02786 89-760, limits assumed).
T1 construct: 0.5 uM hTfR solution immobilised on a Ni-NTA chip with EDC/NHS; source and construct are not described; also called human TfR
As to the kind of experiment: SPR, hTfR immobilised on NTA chip, single cycle kinetics; A = KD less than 100 nM. How it is done: The various synthesized peptide-nucleic acid conjugates were tested for intermolecular interaction by surface plasmon resonance (SPR) of the peptide-nucleic acid conjugate with transferrin receptor (hTfR) using the method shown below. The specific test method is shown below.
NTA sensor chip (Global Life Science Technologies Japan Co., Ltd.) was inserted into Biacore T200 (Global Life Science Technologies Japan Co., Ltd.), prime operation was performed three times with running buffer: 10 mM HEPES pH 8.0 (Nacalai Tesque Co., Ltd.), 150 mM NaCl (Nacalai Tesque Co., Ltd.), 0.05% Tween 20 (Nacalai Tesque Co., Ltd.), 0.1% BSA (SIGMA-ALDRICH), and 1.0% DMSO (FUJIFILM Wako Pure Chemical Corporation), and equilibrated at a flow rate of 30 μL/min. 350 mM EDTA solution was reacted for 60 seconds at a flow rate of 10 μL/min, 0.5 mM NiCl₂ solution (Kishida Chemical) was reacted for 60 seconds at a flow rate of 10 μL/min, and the NTA sensor chip was washed with 3 mM EDTA solution (Nacalai Tesque Co., Ltd.) for 60 seconds at a flow rate of 10 μL/min. After mixing 50 μL each of 60 mM EDC solution (Global Life Science Technologies Japan Co., Ltd.) and 650 mM NHS solution (Global Life Science Technologies Japan Co., Ltd.), the mixture was reacted for 420 seconds at a flow rate of 10 μL/min. 150 μL of a 0.5 μM hTfR solution was prepared by diluting with a running buffer and reacted for 300 seconds at a flow rate of 10 μL/min to immobilize hTfR on the NTA sensor chip. After immobilization, capping was performed by reacting with a 1.0 M ethanolamine aqueous solution (Global Life Science Technologies Japan Co., Ltd.) at a flow rate of 10 μL/min for 420 seconds. A peptide-nucleic acid conjugate solution adjusted to 10 mM in DMSO solution was diluted with running buffer to a final concentration of […] peptide-nucleic acid conjugate solution, and 100 nM, 50 nM, 25 nM, 10 nM, 5 nM peptide-nucleic acid conjugate solutions were prepared. Using the aforementioned samples, the kinetics of the peptide against hTfR was obtained by SPR measurement.
The kinetics evaluation model was Single Cycle Kinetics, and curve fitting was performed using Biacore T200 Evaluation Software Version 3.0 (Global Life Science Technologies Japan Co., Ltd.).
On the technique in general: Surface plasmon resonance follows binding to a sensor surface in real time, without labels.
For the molecule B1, the Kd was below 100 nM.
With B2 the figure was below 100 nM; with B3, below 100 nM.
With B4 the figure was below 100 nM.
B5 showed a Kd below 100 nM.
Take B6: the equilibrium dissociation constant (Kd) is below 100 nM.
B7 registered a dissociation constant (Kd) below 100 nM.
Molecule B8 gave a dissociation constant (Kd) below 100 nM.
For the molecule B9, the Kd is below 100 nM.
Turning to B10, the dissociation constant (Kd) is below 100 nM.
With B11 the figure was below 100 nM; with B12, below 100 nM.
As for B13, the Kd was below 100 nM.
With B14 the figure was below 100 nM; with B15, below 100 nM; with B16, below 100 nM.
With B17, the Kd is below 100 nM.
Turning to B18, the dissociation constant (Kd) was below 100 nM.
The result for B19 reads below 100 nM; that for B20, below 100 nM.
With B21 the figure was below 100 nM.
Regarding B22, the Kd was below 100 nM.
Regarding B23, the equilibrium dissociation constant (Kd) is below 100 nM.
The result for B24 reads below 100 nM.
For B25, the dissociation constant (Kd) was below 100 nM.
For B26, the dissociation constant Kd was below 100 nM.
The result for B27 reads below 100 nM.

A word on the Kd: it is a measure of binding affinity in units of concentration.
